Literature values in patent publication US11749377B2, “Method and electronic system for predicting at least one fitness value of a protein, related computer program product” (PEACCEL, priority 2015, dated 2023).

Assays:
GLP-1 receptor = target: T1, GLP-1 receptor (Rattus norvegicus, UniProt P32301); details: Log(EC50), adenylate cyclase activity
T1 sequence (P32301 22-463): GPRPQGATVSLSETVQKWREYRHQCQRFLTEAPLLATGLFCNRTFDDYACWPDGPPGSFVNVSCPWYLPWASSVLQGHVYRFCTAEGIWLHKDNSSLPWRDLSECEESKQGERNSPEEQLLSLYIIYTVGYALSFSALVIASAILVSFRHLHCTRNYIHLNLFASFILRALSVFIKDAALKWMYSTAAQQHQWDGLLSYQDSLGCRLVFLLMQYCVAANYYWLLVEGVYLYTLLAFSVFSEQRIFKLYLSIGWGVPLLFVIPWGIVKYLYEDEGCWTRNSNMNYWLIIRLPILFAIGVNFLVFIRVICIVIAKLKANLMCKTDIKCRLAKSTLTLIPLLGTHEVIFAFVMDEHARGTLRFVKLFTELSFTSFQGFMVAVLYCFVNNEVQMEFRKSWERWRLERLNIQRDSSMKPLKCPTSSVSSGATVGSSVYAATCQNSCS

rat GLP-1 receptor = target: T2, rat GLP-1 receptor (Rattus norvegicus, UniProt P32301); details: Log(IC50), binding affinity to rat GLP-1 receptor
T2 sequence (P32301 22-463): T1 sequence (P32301 22-463)

| Substance | logEC50 (GLP-1 receptor) | logIC50 (rat GLP-1 receptor) |
| --- | --- | --- |
| GLP1 A18R: single mutant analog of human GLP1 | 1.23 | −0.05061 |
| GLP1 D9A: single mutant analog of human GLP1 |  | 1.041 |
| GLP1 E3A: single mutant analog of human GLP1 | 0.301 | 0.9085 |
| GLP1 E15A: single mutant analog of human GLP1 | 1.813 | 0.6128 |
| GLP1 F6A: single mutant analog of human GLP1 | 1.519 | 1.5563 |
| GLP1 F22A: single mutant analog of human GLP1 | 3.415 | 2.545 |
| GLP1 G16A: single mutant analog of human GLP1 | 0.6021 | −0.2441 |
| GLP1 G29A: single mutant analog of human GLP1 | 0 | 0.1139 |
| GLP1 K28A: single mutant analog of human GLP1 | 0.301 | 0.2304 |
| GLP1 L14A: single mutant analog of human GLP1 | 0.8451 | 0.2304 |
| GLP1 Q17A: single mutant analog of human GLP1 | 0.699 | 0.04139 |
| GLP1 S11A: single mutant analog of human GLP1 | 0.4771 | −0.3372 |
| GLP1 S12A: single mutant analog of human GLP1 | 0.301 | −0.1675 |
| GLP1 T5A: single mutant analog of human GLP1 | 0.699 | 0.5441 |
| GLP1 T7A: single mutant analog of human GLP1 | 1.813 | 1.5563 |
| GLP1 V10A: single mutant analog of human GLP1 | 0.8451 | 0.2304 |
| GLP1 V27A: single mutant analog of human GLP1 | 0.301 | 0.1461 |
| GLP1 Y13A: single mutant analog of human GLP1 | 1.74 | 0.5441 |

The remaining lines, values ahead:

| logEC50 (GLP-1 receptor) | logIC50 (rat GLP-1 receptor) | Substance |
| --- | --- | --- |
| 0.301 | 0.3802 | GLP1 A2S: single mutant analog of human GLP1 |
|  | 1.771 | GLP1 G4A: single mutant analog of human GLP1 |
| 1.8451 | 1.398 | GLP1 I23A: single mutant analog of human GLP1 |
| 1.114 | 0.1461 | GLP1 K20A: single mutant analog of human GLP1 |
| 0.6021 | 0.6721 | GLP1 L26A: single mutant analog of human GLP1 |
| 0.8451 | 0.6628 | GLP1 R30A: single mutant analog of human GLP1 |
| 0.699 | −0.1192 | GLP1 S8A: single mutant analog of human GLP1 |
| 1.176 | 0.2041 | GLP1 W25A: single mutant analog of human GLP1 |
